Data reported in patent publication US5866538A, “Insulin preparations containing NaCl” (Novo Nordisk A/S, priority 1996, dated 1999).

How the values were obtained:
[1] = Stability tests of Asp^B28 human insulin preparations in Penfill cartridges, varying NaCl (Example III); type: physicochemical; settings: phosphate 13.5 mM, pH 7.40
Description: 369.4 mg Asp^B28 human insulin was dissolved in water by adding 1.6 ml 0.2N HCl and 49 μl zinc chloride solution (40 mg Zn/ml). 40 g of a solution containing 40 mg/g glycerol, 3.75 mg/g phenol and 4.30 mg/g m-cresol was added to the solution while mixing. 10 g of a solution containing 24.0 mg/g disodium phosphate dihydrate and 11 μl/g 2N sodium hydroxide was added while mixing. Finally varying amounts (0 g to 4.38 g) of a solution containing 40 mg/g sodium chloride were added while mixing up to a sodium chloride concentration mentioned in Table 4. pH was adjusted to 7.40±0.05 and water added up to 100 ml. The Asp^B28 Human insulin preparations were introduced into Penfill® cartridges and subjected to stability tests at 25° C. and 37° C.

[2] = Stability of Asp^B28 human insulin solutions with varying Zn, NaCl and pH (Example I); type: physicochemical; settings: 4 weeks at 37° C.
Description: Solutions containing 100 U/ml Asp^B28 human insulin, 2.6 mg/ml phenol, 16 mg/ml glycerol and varying amounts of Zn and sodium chloride were prepared. The pH was varied in the range of 7.2 to 7.5.

[3] = 6 weeks at 37° C., NaCl added 5 mM, total Cl^- 8.5 mM
[4] = 6 weeks at 37° C., NaCl added 12.5 mM, total Cl^- 16.3 mM
[5] = 6 weeks at 37° C., NaCl added 20 mM, total Cl^- 23.8 mM
[6] = 6 weeks at 37° C., NaCl added 25 mM, total Cl^- 28.8 mM
[7] = 6 weeks at 37° C., NaCl added 30 mM, total Cl^- 33.8 mM
[8] = 12 weeks at 25° C., NaCl added 0 mM, total Cl^- 3.8 mM
[9] = 12 weeks at 25° C., NaCl added 5 mM, total Cl^- 8.5 mM
[10] = 12 weeks at 25° C., NaCl added 12.5 mM, total Cl^- 16.3 mM
[11] = 12 weeks at 25° C., NaCl added 20 mM, total Cl^- 23.8 mM
[12] = 12 weeks at 25° C., NaCl added 25 mM, total Cl^- 28.8 mM
[13] = 12 weeks at 25° C., NaCl added 30 mM, total Cl^- 33.8 mM
[14] = 13.1 μg Zn/100 U insulin, NaCl 0 mM, pH 7.2
[15] = 13.1 μg Zn/100 U insulin, NaCl 0 mM, pH 7.5
[16] = 13.1 μg Zn/100 U insulin, NaCl 5 mM, pH 7.2
[17] = 13.1 μg Zn/100 U insulin, NaCl 5 mM, pH 7.5
[18] = 13.1 μg Zn/100 U insulin, NaCl 20 mM, pH 7.2
[19] = 13.1 μg Zn/100 U insulin, NaCl 20 mM, pH 7.5
[20] = 16.3 μg Zn/100 U insulin, NaCl 0 mM, pH 7.2
[21] = 16.3 μg Zn/100 U insulin, NaCl 0 mM, pH 7.4
[22] = 16.3 μg Zn/100 U insulin, NaCl 5 mM, pH 7.2
[23] = 16.3 μg Zn/100 U insulin, NaCl 5 mM, pH 7.5
[24] = 16.3 μg Zn/100 U insulin, NaCl 20 mM, pH 7.2
[25] = 16.3 μg Zn/100 U insulin, NaCl 20 mM, pH 7.5
[26] = 19.6 μg Zn/100 U insulin, NaCl 0 mM, pH 7.2
[27] = 19.6 μg Zn/100 U insulin, NaCl 0 mM, pH 7.5
[28] = 19.6 μg Zn/100 U insulin, NaCl 5 mM, pH 7.2
[29] = 19.6 μg Zn/100 U insulin, NaCl 5 mM, pH 7.5
[30] = 19.6 μg Zn/100 U insulin, NaCl 20 mM, pH 7.2
[31] = 19.6 μg Zn/100 U insulin, NaCl 20 mM, pH 7.5
[32] = 22.8 μg Zn/100 U insulin, NaCl 0 mM, pH 7.2
[33] = 22.8 μg Zn/100 U insulin, NaCl 0 mM, pH 7.5
[34] = 22.8 μg Zn/100 U insulin, NaCl 5 mM, pH 7.2
[35] = 22.8 μg Zn/100 U insulin, NaCl 5 mM, pH 7.5
[36] = 22.8 μg Zn/100 U insulin, NaCl 20 mM, pH 7.2
[37] = 22.8 μg Zn/100 U insulin, NaCl 20 mM, pH 7.5

Asp^B28 human insulin
Asp^B28 Des-amido insulins formed [1, 3]: 4.1% | Di- & polymers formed [1, 3]: 0.99% | Asp^B28 Des-amido insulins formed [1, 4]: 3.6% | Di- & polymers formed [1, 4]: 0.92% | Asp^B28 Des-amido insulins formed [1, 5]: 3.0% | Di- & polymers formed [1, 5]: 0.87% | Asp^B28 Des-amido insulins formed [1, 6]: 3.0% | Di- & polymers formed [1, 6]: 0.82% | Asp^B28 Des-amido insulins formed [1, 7]: 2.8% | Di- & polymers formed [1, 7]: 0.80% | Asp^B28 Des-amido insulins formed [1, 8]: 2.7% | Di- & polymers formed [1, 8]: 0.36% | Asp^B28 Des-amido insulins formed [1, 9]: 2.3% | Di- & polymers formed [1, 9]: 0.32% | Asp^B28 Des-amido insulins formed [1, 10]: 1.8% | Di- & polymers formed [1, 10]: 0.39% | Asp^B28 Des-amido insulins formed [1, 11]: 1.7% | Di- & polymers formed [1, 11]: 0.39% | Asp^B28 Des-amido insulins formed [1, 12]: 1.8% | Di- & polymers formed [1, 12]: 0.38% | Asp^B28 Des-amido insulins formed [1, 13]: 1.7% | Di- & polymers formed [1, 13]: 0.38% | Asp^B28 Des-amido insulins formed [2, 14]: 3.44% | Di- & polymers formed [2, 14]: 1.35% | Asp^B28 Des-amido insulins formed [2, 15]: 3.57% | Di- & polymers formed [2, 15]: 1.36% | Asp^B28 Des-amido insulins formed [2, 16]: 3.48% | Di- & polymers formed [2, 16]: 1.53% | Asp^B28 Des-amido insulins formed [2, 17]: 3.31% | Di- & polymers formed [2, 17]: 1.49% | Asp^B28 Des-amido insulins formed [2, 18]: 2.54% | Di- & polymers formed [2, 18]: 1.72% | Asp^B28 Des-amido insulins formed [2, 19]: 2.47% | Di- & polymers formed [2, 19]: 1.26% | Asp^B28 Des-amido insulins formed [2, 20]: 3.35% | Di- & polymers formed [2, 20]: 1.44% | Asp^B28 Des-amido insulins formed [2, 21]: 3.41% | Di- & polymers formed [2, 21]: 1.46% | Asp^B28 Des-amido insulins formed [2, 22]: 1.74% | Di- & polymers formed [2, 22]: 0.95% | Asp^B28 Des-amido insulins formed [2, 23]: 2.58% | Di- & polymers formed [2, 23]: 1.38% | Asp^B28 Des-amido insulins formed [2, 24]: 1.91% | Di- & polymers formed [2, 24]: 1.05% | Asp^B28 Des-amido insulins formed [2, 25]: 2.00% | Di- & polymers formed [2, 25]: 1.31% | Asp^B28 Des-amido insulins formed [2, 26]: 3.07% | Di- & polymers formed [2, 26]: 1.57% | Asp^B28 Des-amido insulins formed [2, 27]: 2.85% | Di- & polymers formed [2, 27]: 1.80% | Asp^B28 Des-amido insulins formed [2, 28]: 2.71% | Di- & polymers formed [2, 28]: 1.36% | Asp^B28 Des-amido insulins formed [2, 29]: 2.24% | Di- & polymers formed [2, 29]: 1.46% | Asp^B28 Des-amido insulins formed [2, 30]: 1.56% | Di- & polymers formed [2, 30]: 1.15% | Asp^B28 Des-amido insulins formed [2, 31]: 1.68% | Di- & polymers formed [2, 31]: 1.13% | Asp^B28 Des-amido insulins formed [2, 32]: 2.71% | Di- & polymers formed [2, 32]: 2.52% | Asp^B28 Des-amido insulins formed [2, 33]: 2.34% | Di- & polymers formed [2, 33]: 1.45% | Asp^B28 Des-amido insulins formed [2, 34]: 2.18% | Di- & polymers formed [2, 34]: 1.95% | Asp^B28 Des-amido insulins formed [2, 35]: 1.90% | Di- & polymers formed [2, 35]: 1.19% | Asp^B28 Des-amido insulins formed [2, 36]: 1.51% | Di- & polymers formed [2, 36]: 1.05% | Asp^B28 Des-amido insulins formed [2, 37]: 1.46% | Di- & polymers formed [2, 37]: 1.09%
